{
  "source": "paper PMC4265154",
  "about": "“A reversible Renilla luciferase protein complementation assay for rapid identification of protein–protein interactions reveals the existence of an interaction network involved in xyloglucan biosynthesis in the plant Golgi apparatus” (Journal of Experimental Botany, 2014)",
  "molecules": {"B1": {"name": "GALACTURONOSYLTRANSFERASE1 (GAUT1) fused to hRluc fragment [F1] or [F2] (natural protein, Arabidopsis thaliana, UniProt Q9LE59 1-673, looked up)", "chain": "MALKRGLSGVNRIRGSGGGSRSVLVLLIFFCVFAPLCFFVGRGVYIDSSNDYSIVSVKQNLDWRERLAMQSVRSLFSKEILDVIATSTADLGPLSLDSFKKNNLSASWRGTGVDPSFRHSENPATPDVKSNNLNEKRDSISKDSIHQKVETPTKIHRRQLREKRREMRANELVQHNDDTILKLENAAIERSKSVDSAVLGKYSIWRRENENDNSDSNIRLMRDQVIMARVYSGIAKLKNKNDLLQELQARLKDSQRVLGEATSDADLPRSAHEKLRAMGQVLAKAKMQLYDCKLVTGKLRAMLQTADEQVRSLKKQSTFLAQLAAKTIPNPIHCLSMRLTIDYYLLSPEKRKFPRSENLENPNLYHYALFSDNVLAASVVVNSTIMNAKDPSKHVFHLVTDKLNFGAMNMWFLLNPPGKATIHVENVDEFKWLNSSYCPVLRQLESAAMREYYFKADHPTSGSSNLKYRNPKYLSMLNHLRFYLPEVYPKLNKILFLDDDIIVQKDLTPLWEVNLNGKVNGAVETCGESFHRFDKYLNFSNPHIARNFNPNACGWAYGMNMFDLKEWKKRDITGIYHKWQNMNENRTLWKLGTLPPGLITFYGLTHPLNKAWHVLGLGYNPSIDKKDIENAAVVHYNGNMKPWLELAMSKYRPYWTKYIKFDHPYLRRCNLHE", "notes": "Made in two forms, one with [F1]-HA and one with [F2]-FLAG; a chain carries one of the two; also called GAUT1-[F1]; GAUT1-[F2]; source: N. benthamiana leaves, transient expression (A. tumefaciens GV3101, with p19), in crude leaf macerate; not shown: hRluc[F1]; (Renilla luciferase residues 1-110) with HA, C-terminal, kept; hRluc[F2]; (Renilla luciferase residues 111-310) with FLAG, C-terminal, kept"}, "B2": {"name": "GALACTURONOSYLTRANSFERASE7 (GAUT7) fused to hRluc fragment [F1] or [F2] (natural protein, Arabidopsis thaliana, UniProt Q9ZVI7 1-619, looked up)", "chain": "MKGGGGGGGGGGGGKRRWKVLVIGVLVLVILSMLVPLAFLLGLHNGFHSPGFVTVQPASSFESFTRINATKHTQRDVSERVDEVLQKINPVLPKKSDINVGSRDVNATSGTDSKKRGLPVSPTVVANPSPANKTKSEASYTGVQRKIVSGDETWRTCEVKYGSYCLWREENKEPMKDAKVKQMKDQLFVARAYYPSIAKMPSQSKLTRDMKQNIQEFERILSESSQDADLPPQVDKKLQKMEAVIAKAKSFPVDCNNVDKKLRQILDLTEDEASFHMKQSVFLYQLAVQTMPKSLHCLSMRLTVEHFKSDSLEDPISEKFSDPSLLHFVIISDNILASSVVINSTVVHARDSKNFVFHVLTDEQNYFAMKQWFIRNPCKQSTVQVLNIEKLELDDSDMKLSLSAEFRVSFPSGDLLASQQNRTHYLSLFSQSHYLLPKLFDKLEKVVILDDDVVVQRDLSPLWDLDMEGKVNGAVKSCTVRLGQLRSLKRGNFDTNACLWMSGLNVVDLARWRALGVSETYQKYYKEMSSGDESSEAIALQASLLTFQDQVYALDDKWALSGLGYDYYINAQAIKNAAILHYNGNMKPWLELGIPNYKNYWRRHLSREDRFLSDCNVNP", "notes": "Made in two forms, one with [F1]-HA and one with [F2]-FLAG; a chain carries one of the two; also called GAUT7-[F1]; GAUT7-[F2]; source: N. benthamiana leaves, transient expression (A. tumefaciens GV3101, with p19), in crude leaf macerate; not shown: hRluc[F1]; (Renilla luciferase residues 1-110) with HA, C-terminal, kept; hRluc[F2]; (Renilla luciferase residues 111-310) with FLAG, C-terminal, kept"}, "B3": {"name": "ARABINAN DEFICIENT1 (ARAD1) fused to hRluc fragment [F1] or [F2] (natural protein, Arabidopsis thaliana, UniProt Q6DBG8 1-447, looked up)", "chain": "MARKSSLLKRAAIAVVSVIAIYVILNASVSRSLPSSSDLPRQLIREDDDDEGRAPIQPRVRVYMYNLPKRFTYGLIEQHSIARGGIKKPVGDVTTLKYPGHQHMHEWYLFSDLNQPEVDRSGSPIVRVSDPADADLFYVPVFSSLSLIVNAGRPVEAGSGYSDEKMQEGLVEWLEGQEWWRRNAGRDHVIPAGDPNALYRILDRVKNAVLLVSDFGRLRPDQGSFVKDVVIPYSHRVNLFNGEIGVEDRNTLLFFMGNRYRKDGGKVRDLLFQVLEKEDDVTIKHGTQSRENRRAATKGMHTSKFCLNPAGDTPSACRLFDSIVSLCVPLIVSDSIELPFEDVIDYRKFSIFVEANAALQPGFLVQMLRKIKTKKILEYQREMKSVRRYFDYDNPNGAVKEIWRQVSHKLPLIKLMSNRDRRLVLRNLTEPNCSCLCTNQTGLITSI", "notes": "Made in two forms, one with [F1]-HA and one with [F2]-FLAG; a chain carries one of the two; also called ARAD1-[F1]; ARAD1-[F2]; source: N. benthamiana leaves, transient expression (A. tumefaciens GV3101, with p19), in crude leaf macerate; not shown: hRluc[F1]; (Renilla luciferase residues 1-110) with HA, C-terminal, kept; hRluc[F2]; (Renilla luciferase residues 111-310) with FLAG, C-terminal, kept"}, "B4": {"name": "MURUS3/KATAMARI1 (MUR3) fused to hRluc fragment [F1] or [F2] (natural protein, Arabidopsis thaliana, UniProt Q7XJ98 1-619, looked up)", "chain": "MFPRVSMRRRSAEVSPTEPMEKGNGKNQTNRICLLVALSLFFWALLLYFHFVVLGTSNIDKQLQLQPSYAQSQPSSVSLRVDKFPIEPHAAPSKPPPKEPLVTIDKPILPPAPVANSSSTFKPPRIVESGKKQEFSFIRALKTVDNKSDPCGGKYIYVHNLPSKFNEDMLRDCKKLSLWTNMCKFTTNAGLGPPLENVEGVFSDEGWYATNQFAVDVIFSNRMKQYKCLTNDSSLAAAIFVPFYAGFDIARYLWGYNISRRDAASLELVDWLMKRPEWDIMRGKDHFLVAGRITWDFRRLSEEETDWGNKLLFLPAAKNMSMLVVESSPWNANDFGIPYPTYFHPAKDSEVFEWQDRMRNLERKWLFSFAGAPRPDNPKSIRGQIIDQCRNSNVGKLLECDFGESKCHAPSSIMQMFQSSLFCLQPQGDSYTRRSAFDSMLAGCIPVFFHPGSAYTQYTWHLPKNYTTYSVFIPEDDVRKRNISIEERLLQIPAKQVKIMRENVINLIPRLIYADPRSELETQKDAFDVSVQAVIDKVTRLRKNMIEGRTEYDYFVEENSWKYALLEEGQREAGGHVWDPFFSKPKPGEDGSSDGNGGTTISADAAKNSWKSEQRDKTQ", "notes": "Made in two forms, one with [F1]-HA and one with [F2]-FLAG; a chain carries one of the two; also called MUR3-[F1]; MUR3-[F2]; source: N. benthamiana leaves, transient expression (A. tumefaciens GV3101, with p19), in crude leaf macerate; not shown: hRluc[F1]; (Renilla luciferase residues 1-110) with HA, C-terminal, kept; hRluc[F2]; (Renilla luciferase residues 111-310) with FLAG, C-terminal, kept"}},
  "experiment_in_all_cases": "split reporter (BiFC, NanoBiT); Rluc-PCA: proteins with C-terminal hRluc[F1]-HA and hRluc[F2]-FLAG co-expressed with p19 in N. benthamiana leaves for 72 h (Agrobacterium OD600 0.2 each, p19 0.05); pooled leaf discs macerated in 0.5 M NaCl, 0.1 M potassium phosphate pH 7.4, 1 mM EDTA, 0.02% BSA, protease inhibitors; 10 uM coelenterazine-h, luminescence 30 s; compared with p19 alone",
  "key": {"[1]": {"target": "FUCO…1 (FUT1) fused to hRluc fragment [F1] or [F2] (Arabidopsis thaliana) (UniProt Q9SWH5)", "sequence (Q9SWH5 whole entry, the tested form may be a part)": "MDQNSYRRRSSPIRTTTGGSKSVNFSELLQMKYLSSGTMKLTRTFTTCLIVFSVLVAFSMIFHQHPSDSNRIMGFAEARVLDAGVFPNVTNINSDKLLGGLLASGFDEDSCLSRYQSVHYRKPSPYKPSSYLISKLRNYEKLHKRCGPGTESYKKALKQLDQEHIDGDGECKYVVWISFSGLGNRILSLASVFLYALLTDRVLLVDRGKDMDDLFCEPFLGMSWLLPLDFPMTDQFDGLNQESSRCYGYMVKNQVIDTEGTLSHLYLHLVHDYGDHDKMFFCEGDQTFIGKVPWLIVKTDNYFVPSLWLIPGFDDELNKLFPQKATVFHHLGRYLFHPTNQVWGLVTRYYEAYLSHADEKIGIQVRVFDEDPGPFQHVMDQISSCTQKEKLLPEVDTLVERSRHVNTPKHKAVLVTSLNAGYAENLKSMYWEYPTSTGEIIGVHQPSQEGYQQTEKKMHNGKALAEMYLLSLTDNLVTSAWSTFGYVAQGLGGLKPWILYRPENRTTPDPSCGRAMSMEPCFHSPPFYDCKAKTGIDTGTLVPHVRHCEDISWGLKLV"}, "[2]": {"target": "B2", "conditions": "partners not purified"}, "[3]": {"target": "B1", "conditions": "partners not purified"}, "[4]": {"target": "the molecule itself"}},
  "data": [
    {"molecule": "XXT5 fused to hRluc fragment [F1] or [F2] (from UniProt Q9CA75 1-457) (natural protein)", "values": [
      {"measurement": "Log10(RLU)", "setting": "[1]", "value": "3.76 Log10(RLU)"}
    ]},
    {"molecule": "B1", "values": [
      {"measurement": "Log10(RLU)", "setting": "[2]", "value": "4.71 Log10(RLU)"}
    ]},
    {"molecule": "B2", "values": [
      {"measurement": "Log10(RLU)", "setting": "[3]", "value": "4.71 Log10(RLU)"}
    ]},
    {"molecule": "B3", "values": [
      {"measurement": "Log10(RLU)", "setting": "[4]", "value": "4.75 Log10(RLU)"}
    ]},
    {"molecule": "B4", "values": [
      {"measurement": "Log10(RLU)", "setting": "[4]", "value": "4.75 Log10(RLU)"}
    ]}
  ]
}
